T1: PknB1-279 (His-tagged catalytic kinase core of the Ser/Thr protein kinase PknB, Rv0014c, aa 1-279), P9WI81
T1 chain: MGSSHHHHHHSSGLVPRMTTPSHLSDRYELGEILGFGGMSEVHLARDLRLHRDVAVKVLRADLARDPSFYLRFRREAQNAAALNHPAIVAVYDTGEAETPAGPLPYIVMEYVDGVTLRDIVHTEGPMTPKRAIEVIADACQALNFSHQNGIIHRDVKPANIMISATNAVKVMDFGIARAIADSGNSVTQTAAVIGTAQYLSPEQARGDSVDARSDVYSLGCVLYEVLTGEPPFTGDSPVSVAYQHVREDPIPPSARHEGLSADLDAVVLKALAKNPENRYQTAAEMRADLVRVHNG

B1: PstP1-240 (His-tagged catalytic domain of the Ser/Thr protein phosphatase PstP, Rv0018c, aa 1-240) (protein)
chain: MARVTLVLRYAARSDRGLVRANNEDSVYAGARLLALADGMGGHAAGEVASQLVIAALAHLDDDEPGGDLLAKLDAAVRAGNSAIAAQVEMEPDLEGMGTTLTAILFAGNRLGLVHIGDSRGYLLRDGELTQITKDDTFVQTLVDEGRITPEEAHSHPQRSLIMRALTGHEVEPTLTMREARAGDRYLLCSDGLSDPVSDETILEALQIPEVAESAHRLIELALRGGGPDNVTVVVADVVD

What was measured:
[1] = target: PknB1-279 (His-tagged catalytic kinase core of the Ser/Thr protein kinase PknB, Rv0014c, aa 1-279) (Mycobacterium tuberculosis) (UniProt P9WI81); assay: cell-based or functional assay
[2] = target: T1, PknB1-279 (His-tagged catalytic kinase …)

Molecule	MALDI-TOF mass of PknB1-279 after treatment with PstP or alkaline phosphatase: phosphate groups removed (phosphate groups) [1]	dephosphorylation of [33P]-autophosphorylated PknB1-279 by PstP, SDS-PAGE and autoradiography, with or without MnCl2 [2]	kinase activity of PknB on MBP (thio-γATP) after preincubation with PstP [2]
PstP1-240 (His-tagged catalytic domain of the Ser/Thr protein phosphatase PstP, Rv0018c, aa 1-240) (from UniProt P9WHW5 1-240) (enzyme)	3	–	–
B1	–	PstP is capable of dephosphorylating PknB	prior dephosphorylation of PknB by PstP inhibits kinase activity on MBP
